# From CN111662379A (JIANGSU DISEASE CONTROL AND PREVENTION CENTER JIANGSU …, dated 2020)
# B1: FC11 (antibody, V domains shown)
# VH: EVQLLESGGGVVQPGRSLRLSCAASGFTFSYYGMHWVRQAPGTGLEWVAVISYDGSNEYYADSVKGRFTISRDNSKNTLYLQMNSLRAEDTAVYYCAKAMFLGDSSGLTGLDMDVWGQGTTVTVSS
# VL: DIELTQSPGTLSLSPGERATLSCRASQSVSSYLAWYQQKPGQAPRLLIYDASNRATGIPARFSGSGSGTDFTLTISSLEPEDFALYYCQQRGNWPPTFGGGTKLEIK
# notes: also called FC11抗体
# B2: FC08 (antibody, V domains shown)
# VH: VQLLQQSGAEVKKPGSSVKVSCKASGGTFSSYAISWVRQAPGQGLEWMGGIIPILGIANYAQKFQGRVTITADKSTSTAYMELSSLRSEDTAVYYCVRERGYSGYGAAYYFDYWGQGTLVTVSS
# VL: QSVLTQPPSVSGAPGQRVTISCTGSSSNIGAGYDVHWYQQLPGTAPKLLIYGNSNRPSGVPDRFSGSKSGTSASLAITGLQAEDEADYYCQSYDSSLSGSVFGGGTKLTVL
# B3: FC05 (antibody, V domains shown)
# VH: VQLLEQSGAEVKKPGASVRVSCKVSGYTLPEVAMHWVRQAPGKGLEWMGGFDPEDGETIYAQKFQGRVTMTEDTSTDTAYMELSSLRSEDTAVYYCATTTPFSSSFWFDPWGQGTLVTVSS
# VL: QSVLTQAPSVSGAPGQKVTISCSGSSSNIGNNYVSWYQQLPGTAPKLLIYDNNKRPSGIPDRFSGSKSGTSATLGITGLQTGDEADYYCGTWDSSLSAVVFGGGTKLTVL
# Assays:
# [1] = target: 重组SARS-CoV-2刺突蛋白胞外区 (extra cellular domain of spike protein, S-ECD) (SARS-CoV-2, UniProt P0DTC2 14-1213); assay: SPR, Biacore 8K, S-ECD immobilised on a CM5 chip, antibody injected at 125nM~7.8nM
# [2] = target: 重组SARS-CoV-2刺突蛋白胞外区 (extra cellular domain of spike protein, S-ECD) (SARS-CoV-2, UniProt P0DTC2 14-1213); assay: as above; remark: listed apart in the source
# [3] = target: SARS-CoV-2 S蛋白 (on live virus, 江苏分离株 BetaCoV/JS03/human/2020) (SARS-CoV-2, UniProt P0DTC2 14-1273); assay: cell-based or functional assay
binder,measurement,setting,value
B1,Kd,[1],0.5 nM
B2,Kd,[2],0.8 nM
B3,"IC50 (体外中和实验, live SARS-CoV-2 on Vero E6 cells, cytopathic effect)",[3],0.142 mg/L
